According to patent US20100297664A1 (NATIONAL INSTITUTE OF ADVANCE INDUSTRIAL SCIENCE AND …, published 2010):

What was measured:
Experiment in all cases: peptide microarray (RepliTope)
SEQ ID NO 67 = biological target: T1, SEQ ID NO 67 (human)
T1 construct: 15-mer of the human mortalin 348-450 array
T1 peptide: PKVQQTVQDLFGRAP
Protocol: (§1) Eighty nine (89) peptides (15 amino acids each) which were designed to each be shifted by one amino acid on the amino acid sequence ranging from position 348 to position 450 of human mortalin containing the amino acid sequence (SEQ ID NO: 56) ranging from the above position 381 to position 410, were chemically synthesized. Epitope mapping (RepliTope mapping) analysis was then carried out on them using a Tecon HS400 microarray analysis station (FIG. 14).
(§2) Background measurement was carried out for each microarray using an Axon Genepix scanner, so that it was confirmed that no signals were detected. All microarrays were treated using a blocking buffer (Pierce, Puperblock TBS #37536).
(§3) As anti-mortalin monoclonal antibodies having the cellular internalizing function, two antibodies 37-6 and 38-4 were prepared. Antibody 53-3 that is an anti-mortalin antibody not having the cellular internalizing function was prepared for comparison. Each antibody (30 μg/mL, 200 μL) diluted with a blocking buffer was applied to microarrays and then incubated. After the microarrays were washed 3 instances with a TBS buffer containing 0.1% T20, a fluorescence-labeled secondary antibody (1 μg/mL, anti-mouse-Dylight 649; Pierce #35515) was applied thereto and then incubated. Similarly, a control array subjected to incubation with only the secondary antibody was also treated so as to confirm no detected signals.

SEQ ID NO 68 = biological target: T2, SEQ ID NO 68 (human)
T2 construct: 15-mer of the human mortalin 348-450 array; by its order peptide #47 (inferred)
T2 peptide: KVQQTVQDLFGRAPS
Protocol: as §1, §2, §3

SEQ ID NO 69 = biological target: T3, SEQ ID NO 69 (human)
T3 construct: 15-mer of the human mortalin 348-450 array; by its order peptide #48 (inferred)
T3 peptide: VQQTVQDLFGRAPSK
Protocol: as §1, §2, §3

SEQ ID NO 70 = biological target: T4, SEQ ID NO 70 (human)
T4 construct: 15-mer of the human mortalin 348-450 array; by its order peptide #49 (inferred)
T4 peptide: QQTVQDLFGRAPSKA
Protocol: as §1, §2, §3

SEQ ID NO 71 = biological target: T5, SEQ ID NO 71 (human)
T5 construct: 15-mer of the human mortalin 348-450 array; by its order peptide #50 (inferred)
T5 peptide: QTVQDLFGRAPSKAV
Protocol: as §1, §2, §3

SEQ ID NO 72 = biological target: T6, SEQ ID NO 72 (human)
T6 construct: 15-mer of the human mortalin 348-450 array; by its order peptide #51 (inferred)
T6 peptide: TVQDLFGRAPSKAVN
Protocol: as §1, §2, §3

SEQ ID NO 73 = biological target: T7, SEQ ID NO 73 (human)
T7 construct: 15-mer of the human mortalin 348-450 array; by its order peptide #52 (inferred)
T7 peptide: VQDLFGRAPSKAVNP
Protocol: as §1, §2, §3

SEQ ID NO 74 = biological target: T8, SEQ ID NO 74 (human)
T8 construct: 15-mer of the human mortalin 348-450 array; by its order peptide #53 (inferred)
T8 peptide: QDLFGRAPSKAVNPD
Protocol: as §1, §2, §3

SEQ ID NO 75 = biological target: T9, SEQ ID NO 75 (human)
T9 construct: 15-mer of the human mortalin 348-450 array; by its order peptide #54 (inferred)
T9 peptide: DLFGRAPSKAVNPDE
Protocol: as §1, §2, §3

SEQ ID NO 76 = biological target: T10, SEQ ID NO 76 (human)
T10 construct: 15-mer of the human mortalin 348-450 array; by its order peptide #55 (inferred)
T10 peptide: LFGRAPSKAVNPDEA
Protocol: as §1, §2, §3

SEQ ID NO 77 = biological target: T11, SEQ ID NO 77 (human)
T11 construct: 15-mer of the human mortalin 348-450 array
T11 peptide: KAMQDAEVSKSDIGE
Protocol: as §1, §2, §3

SEQ ID NO 78 = biological target: T12, SEQ ID NO 78 (human)
T12 construct: 15-mer of the human mortalin 348-450 array
T12 peptide: GEVILVGGMTRMPKV
Protocol: as §1, §2, §3

SEQ ID NO 79 = biological target: T13, SEQ ID NO 79 (human)
T13 construct: 15-mer of the human mortalin 348-450 array
T13 peptide: EVILVGGMTRMPKVQ
Protocol: as §1, §2, §3

SEQ ID NO 80 = biological target: T14, SEQ ID NO 80 (human)
T14 construct: 15-mer of the human mortalin 348-450 array
T14 peptide: GMTRMPKVQQTVQDL
Protocol: as §1, §2, §3

SEQ ID NO 81 = biological target: T15, SEQ ID NO 81 (human)
T15 construct: 15-mer of the human mortalin 348-450 array
T15 peptide: TRMPKVQQTVQDLFG
Protocol: as §1, §2, §3

SEQ ID NO 82 = biological target: T16, SEQ ID NO 82 (human)
T16 construct: 15-mer of the human mortalin 348-450 array
T16 peptide: RMPKVQQTVQDLFGR
Protocol: as §1, §2, §3

Measured: binding result

B1: anti-mortalin monoclonal antibody 52-3 (antibody, V domains shown)
VH: QVQLQQPGAELVKPGASVKLSCKASGYTFTSYWMHWVKQRPGQGLEWIGEINPSNGRTNYNEKFKSKATLTVDKSSSTAYMQLSSLTSEDSAVYYCARSRYYGSCYFDYWGQGTTLTVSS
VL: KIVMTQAAFSNPVTLGTSASISCRSSKSLLYSNGITYLYWYLQKPGQSPQLLIYQMSNLASGVPDRFSSSGSGTDFTLRISRVEAEDVGVYYCAQNLELPWTFGGGTKLEIK
notes: also called 52-3 antibody; non-internalization antibody
no binding (tested: 30 µg/mL): all assays above
